Measured values reported in the RNAGym collection of RNA variant scans (doi:10.1073/pnas.2313332121).

B1: TPR t1 (parent)
chain: GACCAAUCUGCCCUCAGAGCUCGAGAACAUCUUCGGAUGCAGAGGAGGCAGGCUUCGGUGGCGCGAUAGCGCCAACGUCCUCAACCUCCAAUGCAUCCCACCACAUGAUGAUGCCUGAAGAGCCUUGGUUUUUUG

Variants of: B1
Test: polymerase ribozyme fitness, log enrichment relative to wild type (log ratio); higher = more active; in vitro selection for triplet polymerase activity
Summary of the method: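 Only genotypes with ≥10 input reads and ≥1 read per output were kept after Illumina sequencing of input and output libraries. These libraries were PCR-built, transcribed mutants of each subunit of a heterodimeric triplet polymerase ribozyme, each put through one triplicate in vitro selection round with frozen incubation at −7 °C, gel excision of extended constructs, streptavidin-bead capture and RT-PCR. Fitness is a logarithmic ratio of genotype enrichment to wild-type enrichment, from inverse-variance-weighted replicate averages, with the logarithm in base 2.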

Row | Variant | polymerase ribozyme fitness (log ratio)
1 | GACCAAUCUGCCCUCAGAGCUCGAGAACAUCUUCGGAUCCAGAGGAGGCAGGCUUCGGUGGCGCGAUAGCGCCAACGUCCUCAACCUCCAAUGCAUCCCAACACAUGAUGAUGCCUGAAGAGCCUUGGUUUUUUG | -1.69
2 | GACCAAUCUGCCCUCAGAGCUCGAGAACAUCUUCGGAUCCAGAGGAGGCAGGCUUCGGUGGCGCGAUAGCGUCAACGUCCUCAACCUCCAAUGCAUCCCACCACAUGAUGAUGCCUGAAGAGCCUUGGUUUUUUG | -1.18
3 | GACCAAUCUGCCCUCAGAGCUCGAGAACAUCUUCGGAUCCAGAGGAGGCAGGCUUCGGUGGCGCGAUAGCGCCAACGUCCUCAACCUCCAAUGCAUCCCACCACAUGAAUAUGCCUGAAGAGCCUUGGUUUUUUG | -3.37
4 | GACCAAUCUGCCCUCAGAGCUCGAGAACAUCUUCGGAUCCAGAGGAGGCAGGCUUCGGUGGCGCGAUAGCGCCAACGUCCUCAACCUCCAAUGCAUACCACCACAUGAUGAUGCCUGAAGAGCCUUGGUUUUUUG | -5.8
5 | GACCAAUCUGCCCUCAGAGCUCGAGAACAUCUUCGGAUCCAGAGGAGGCAGGCGUCGGUGGCGCGAUAGAGCCAACGUCCUCAACCUCCAAUGCAUCCCACCACAUGAUGAUGCCUGAAGAGCCUUGGUUUUUUG | -3.74
6 | GACCAAUCUGCCCUCAGAGCUCGAGAACAUCUUCGGAUCCAGAGGAGGCAGGCUUCGGUGGCGCGAUAGCGCCAACGUCCUCAACCUUCAAUGCAUCCCACCACAUGAUGAUGCCUGAAGAGCCUUGGUUUUUUU | -2.39
7 | GACCAAUCUGCCCUCAGAGCUCGAGAACAUCUUCGGAUUCAGAGGAGGCAGGCUUCGGUGGCGCGAUGGCGCCAACGUCCUCAACCUCCAAUGCAUCCCACCACAUGAUGAUGCCUGAAGAGUCUUGGUUUUAUG | -2.96
8 | GACCAAUCUGCCCUCAGAGCUCGAGAACAUCUUCGGAUCCAGAGGAGGCAGGCUAAGGUGGCUCGAUAGCGCCAACGUCCUCAACCUCCAAUGCAUCCCACCACAUGAUGAUGCCUGAAGUGCCUUGGUUUUUUG | -4.47
9 | GACCAAUCUGCCCUCAGAGCUCGAGAACAUCUUCGGAUCCAGAGGAGGCAGGCUUCGGUGGCGCGAUAGCGCCAACGUCCUCAACUUCCAAUGCAUCCCACCACAUGAUGAUGCCUGAAGAGCCUUGGUUUUUUG | -2.09
10 | GACCAAUCUGCCCUCAGAGCUCGAGAACAUCUUCGGAUCCAGAGGAGGCAGGCUUCGGUGGCGCGAUAGCGCCAACGUCCUCAACCUCCAAUGCAUCACACCACAUGAUGAUGCCUGAAGAGCCUUGGUUUUUUG | -5.08
11 | GACCAAUCUGCCCUCAGAGCUCGAGAACAUCUUCGGAUUCAGAGGAGGCUGGCUUCGGUUACGCGAUAGCGCCAACGUACUCAACCUCCAAUGCAUCCCACCACAUGAUGAUGCCUGAAGAGCCUUGGUUUUUUG | -3.64
12 | GACCAAUCUGCCCUCAGAGCUCGAGAACAUCUUCGGAUUCAGCGGAGGCAGGCUUCGGUGGUGCGAUAGCGCCAACGUCCUCAACCUCCAAUGCAUCCCACCACAUGAUGAUGCCUGAAGAGCCUUAGUUUUUUG | -4.5
13 | GACCAAUCUGCCCUCAGAGCUCGAGAACAUCUUCGGAUCCAGAGGAGGCAGGCUUCGGUGGCGCGAUAGCGCCAACGUCCUCAACCUCCAAUGCAUCCCACCACAUGAUGAUGCUUGAACAGCCUUGGUUUUUUG | -1.04
14 | GACCAAUCUGCCCUCAGAGCUCGAGAACAUCUUCGGAUCCAGAGGAGGCAGGCUUCGGUGGCGCGAUAGCGCCAACGACCUCAACCUCCAAUGCAUCCCACCACAUGAUGAUGCCUGAAGAGCCUUGGUUUUUUG | -0.87
15 | GACCAAUCUGCCCUCAGAGCUCGAGAACAUCUUCGGAUCCAGAGGAGGCAGGCAUCGGUGGCGCGAUAGCGCCGACGUCCUCAACCUCCAAUGCAUCCCACCACAUGAUGAUGCCUGAAGAGCCUUGGUUUUUUG | -0.531
16 | GACCAAUCUGCCCUCAGAGCUCGAGAACAUCUUCGGAUUCAGAGGAGGCAGGCUUCGGUGGCGCGAUGGUGCCAACGUCCUCAACCUCCAAUGCAUCCCACCACAUGAUGAUGCCUGAAGUGCCUUGGUUUUUUG | -2.23
17 | GACCAAUCUGCCCUCAGAGCUCGAGAACAUCUUCGGAUUCAGAGGAGGCUGGCUUCGGUGGCGCGAUAGCGCCAACGUCCUCAACCUCCAAUGCAUCCCACCACAUGAUGAUGCCUGAAGAGCCUUGGUUUUUUG | -1.79
18 | GACCAAUCUGCCCUCAGAGCUCGAGAACAUCUUCGGAUCCAGAGGAGGCAGGCUUGGGUGGCGCGAUAGCGCCAACGUCCUCAACCUCCAAUGCAUCCCACCACAUGAUGCUGCCUGAAGAGCCUUGAUUUUUUG | -3.6
19 | GACCAAUCUGCCCUCAGAGCUCGAGAACAUCUUCGGAUCCAGAGGAGAUAGGCUUCGGUGGCGCGAUAGCGCCAACGUCCUCAACCUCAAAUGCAUCCCACCACAUGAUGAUGCCUGAAGAGCCUUGGUUUUUUG | -4.19
20 | GACCAAUCUGCCCUCAGAGCUCGAGAACAUCUUCGGAUCCAGAGAAGGCAGGCUUCGGUGGCGCGAUAGCGCCAACGUCCUCAACCUCCAAUGCAUCCCACCACAUGAUGAUGCCUGAAGAGCCUUGGUUUUUUG | -0.954
21 | GACCAAUCUGCCCUCAGAGCUCGAGAACAUCUUCGGAUCCAGAGGAGGCAGGCUUCGGUGGCGCGAUAGCUCCAACGUCCUCAACCUCCAAUGCAUCCCACCACAUGAUGAUGCCUGAAGAGCCUUGGUUUUUUG | -0.983
